Results taken from the supplement of paper PMC9732359.
± gives the uncertainty stated by the source.

Test: protein stability index of a GFP-peptide fusion (yeast GPS) (PSI 1-4); higher = more stable; sorted into four equal gates, so the index is relative within each strain
Conditions: doa10∆
Summary of the method: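 Tiled yeast protein peptides of 17 residues were each joined downstream of GFP, on plasmids that also express Cherry. The pooled library was maintained in yeast, and mid-log cultures in leucine-free medium were sorted into four equal gates on the GFP/Cherry ratio. Plasmids from every gate were amplified by PCR and sequenced on Illumina, with barcodes linking reads to strains. The protein stability index of a peptide is its gate-number-weighted read frequency summed over the gates.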

Row | Sequence | protein stability index
1 | SLLTLVGSVTYQVDEDV [YJL039C/NUP192] | 1.8 ± 0.1
2 | SLNLGIGIVEIAHENEQ [SRB8] | 1.43 ± 0.11
3 | SLNPALQEKISTELNNK [SWI1] | 2.8 ± 0.11
4 | SLPEFFTNRIPSKTPEV [SWI3] | 2.56 ± 0.066
5 | SLPEGLLKSLWDYVKKN [TAF14] | 3.01 ± 0.17
6 | SLPLIVFLRNRLKYALN [RPS4A] | 1.4 ± 0.059
7 | SLYAYCHSKLRGQQVEN [GRR1] | 2.51 ± 0.1
8 | SLYKVSFLEKPKFAIQD [YMR129W/POM152] | 2.93 ± 0.11
9 | SMHLLKDWTDTFVYILE [SRB8] | 3.06 ± 0.057
10 | SMNNDFQQQQQQQQQQQ [PGD1] | 2.43 ± 0.1
11 | SNDEKQKAQDVDVSMQD [RPN13] | 3.17 ± 0.091
12 | SNDIIDKPYLLRIVTHL [YDL116W/NUP84] | 1.93 ± 0.11
13 | SNIDIRVRVTGGGHVSQ [RPS16A] | 2.02 ± 0.093
14 | SNLSQNVVPYHRNTSDY [SWI1] | 2.65 ± 0.083
15 | SNNDEDDKDCTIKISTN [RGR1] | 2.94 ± 0.063
16 | SNRLLMDVDQFDFLDDG [YJR042W/NUP85] | 1.49 ± 0.097
17 | SNTSTLKNMLYVLSTAV [BRR2] | 1.57 ± 0.066
18 | SNVAAIFKGIGGNFKDL [GAL11] | 2.78 ± 0.11
19 | SPEQIDASPDSLEALID [YCS4] | 2.92 ± 0.054
20 | SPERFATLGIDPPKGIL [RPT1] | 2.74 ± 0.066
21 | SPFRPLEKTSRILNFFD [YMR153W/NUP53] | 2.85 ± 0.13
22 | SPFSITFSVYHESTSRT [YMR129W/POM152] | 2.36 ± 0.11
23 | SPHGLINLNVDDDILII [SRB4] | 3.1 ± 0.074
24 | SPLQSSKSKQSFTQGEL [YMR129W/POM152] | 2.88 ± 0.055
25 | SPNRLRVRTDDSVLLNR [YML031W/NDC1] | 2.78 ± 0.22
26 | SPRVEKRSFSSTLKSFF [YOR098C/NUP1] | 1.55 ± 0.067

Row | Sequence | protein stability index
27 | SPTYSPTSPAYSPTSPS [RPO21] | 3.08 ± 0.045
28 | SQEMVPRYFSEAINGFK [SIR3] | 2.99 ± 0.079
29 | SQISKAEMEADSLASEL [SMC4] | 2.75 ± 0.08
30 | SQLGGNKTVNEAAKPSL [YJL041W/NSP1] | 3.36 ± 0.11
31 | SQQLLEILVTELTAQGY [RPN2] | 1.65 ± 0.077
32 | SQTPKVEKTEKPKKPKG [RPS30A] | 3.1 ± 0.07
33 | SQTTTNDSKEESTTEAT [YLR335W/NUP2] | 3.02 ± 0.19
34 | SQVEDFTRIFLPIYDSL [SIR3] | 2.67 ± 0.059
35 | SQVYAIRQAIAKGLVAY [RPS16A] | 2.22 ± 0.069
36 | SRIVEIFALCIYNSTDS [YML103C/NUP188] | 1.2 ± 0.093
37 | SRKRNEEEDAKNPLFSY [RPL31A] | 2.48 ± 0.078
38 | SRLCTPIPVQGEIEIKP [RPN13] | 2.42 ± 0.078
39 | SRNNTLNVTPSKRPQLG [SIR4] | 2.96 ± 0.1
40 | SRRFKNGFQTGSAKATS [RPL37B] | 3.13 ± 0.078
41 | SRSSSKNVNIEDITEPK [ESC2] | 2.92 ± 0.086
42 | SRTATWLKNKFAEENIT [BRR2] | 1.69 ± 0.052
43 | SRTGPVFDLCWNSLMYA [RRP43] | 2.64 ± 0.06
44 | SSAADITMESVHEWEVS [PRP8] | 3.28 ± 0.062
45 | SSDAFEKLKVNMEKEKD [YIL149C/MLP2] | 3.05 ± 0.071
46 | SSDDLQNCWSLINDSYI [SSN8] | 1.94 ± 0.068
47 | SSDGAYTEQFQHYKNNS [SSN2] | 2.99 ± 0.068
48 | SSEALEAARICANKYMT [RPL10] | 1.35 ± 0.13
49 | SSEIDRENVKSKDEPVS [SIR4] | 3.13 ± 0.15
50 | SSEIKIYYNELQNKPDA [SIR4] | 2.91 ± 0.23
51 | SSFYINHASMDVYNREL [BRR2] | 3.02 ± 0.12
52 | SSGAGTVKLYLPEILNV [ECM29] | 1.45 ± 0.065

Row | Sequence | protein stability index
53 | SSGVLSSNIAGTNPLSS [SSN2] | 3.41 ± 0.13
54 | SSIDKIEDRDFLVRYAC [SIR3] | 2.9 ± 0.17
55 | SSIHAIGSIKEDYLGAI [RPB7] | 2.61 ± 0.076
56 | SSIHWNNWFSLPGDMLA [SIN4] | 2.56 ± 0.061
57 | SSKLQLTKKYSFKIFVD [RRP42] | 2.19 ± 0.09
58 | SSKNETSKPVFSFGAAT [YLR335W/NUP2] | 3.12 ± 0.071
59 | SSLIPHCITSITLALAD [MTR3] | 1.28 ± 0.055
60 | SSLPPGEILLPDIADIP [SNF5] | 3.12 ± 0.074
61 | SSLRKNASGNKRSGVIE [ITC1] | 2.96 ± 0.22
62 | SSQKDGNDFKFNYQGDE [REC8] | 3.41 ± 0.067
63 | SSRFKHRQEIFKDSPMD [GAL11] | 2.71 ± 0.078
64 | SSRPNVNTTRRFQYSDD [YMR129W/POM152] | 2.93 ± 0.14
65 | SSSAQQTKSNGTAGGNT [YJL041W/NSP1] | 3.32 ± 0.12
66 | SSSGNTWSLILNECLKT [YML031W/NDC1] | 1.85 ± 0.066
67 | SSTGGGLFGNKPALGSL [YGR119C/NUP57] | 3.33 ± 0.1
68 | SSTTGMSYVVRILSTLD [RPT3] | 2.31 ± 0.082
69 | SSYMGKHWTEKSLHEMN [PRP28] | 3.23 ± 0.14
70 | STAFQNTPLSLPTRGTL [COR1] | 2.27 ± 0.05
71 | STDNEAITISNSIDINY [SMC1] | 2.62 ± 0.053
72 | STFQTRRRRLKKVEEEE [RPB4] | 3.33 ± 0.15
73 | STGGKAPRKQLASKAAR [HHT1] | 2.35 ± 0.23
74 | STKKDTVQLTFLIDVLK [YCG1] | 2.38 ± 0.096
75 | STSFKNPRRLEIKDGRS [YMR153W/NUP53] | 3.06 ± 0.084
76 | STSIQYHGISKNDNIKK [POP6] | 2.79 ± 0.068
77 | STTASGTTATGTGLFGQ [YGR119C/NUP57] | 3.18 ± 0.074
78 | STVQTPITASMAAALPN [PGD1] | 1.59 ± 0.074

Row | Sequence | protein stability index
79 | SVGVIINKMVGNRYLEK [RPL21A] | 3.01 ± 0.14
80 | SVIVSQFCAFDSSSNTY [SIN4] | 2.48 ± 0.084
81 | SVKDYRPAEETEAQAEP [RPS3] | 2.76 ± 0.065
82 | SVLRDTLVAQNLKQANN [SMC4] | 2.68 ± 0.082
83 | SVNIAFAISMGYLFKVS [ECM29] | 2.21 ± 0.14
84 | SVNPSNKPIKRMLSSIL [SWP82] | 2.95 ± 0.065
85 | SVREINLYMLVTTCVYL [SSN8] | 2.32 ± 0.057
86 | SVRLQVTKILPHLIIQN [IRR1] | 1.65 ± 0.091
87 | SVRRSGALDVEGLCIVA [RRP45] | 2.47 ± 0.15
88 | SYAGISTDKLVQCHGSF [SIR2] | 2.57 ± 0.12
89 | SYESLKKRKIHNGREGS [MCD1] | 1.7 ± 0.04
90 | SYEYYNIKHKHTSIRET [SMC2] | 1.61 ± 0.047
91 | SYKMIQLDAYGEKKVGS [SWP82] | 3.27 ± 0.093
92 | TAAANTEKLSNGFSFTK [YOR098C/NUP1] | 2.81 ± 0.079
93 | TAAIDSVVSQIEKGSTF [FAS1] | 3.1 ± 0.097
94 | TAGVGSTPNFGGNSNKS [SIN4] | 3.73 ± 0.2
95 | TAKPAFSFGAKPAEKNN [YJL041W/NSP1] | 3.19 ± 0.11
96 | TALKQYEKELMGDELTR [RPN6] | 3.26 ± 0.13
97 | TAPSSERRVLLSAPLSK [RPL26B] | 1.86 ± 0.041
98 | TATGAASKSGKLTQKLV [CYT1] | 1.64 ± 0.092
99 | TATIINNESSDDMDIDE [PCI8] | 3.1 ± 0.097
100 | TDAYLDQYLWYEADQRK [PRP8] | 3.18 ± 0.12
101 | TDDQGRVIDDNNRRRSR [SIR3] | 3.66 ± 0.12
102 | TDDVRLAPELNQAIWKR [RPL31A] | 3.28 ± 0.1
